B1: KIAA1161 (parent)
chain: FMPAMQFSIPPWRYDAEVVAIAQK

Variants of: B1
Experiment: protein stability index of a GFP-peptide fusion (GPS, HEK-293T) (PSI 1-6); higher = more stable
Conditions: c terminus: a fixed tail appended
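Note: lentivirally expressed fusions sorted by FACS into six bins by GFP to DsRed ratio, PSI derived from sequencing read proportions per bin multiplied by bin number.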

Which protein stability index does the source give for FMPAMQFSIPPRRYDAEVVAIAQK [W12R] here?
The protein stability index was 2.39.

With FMPAMQFSIPPGRYDAEVVAIAQK [W12G] as the variant, how does the protein stability index read?
Its protein stability index is 2.76.

Which protein stability index does the source give for FMPAMQFSIPPPRYDAEVVAIAQK [W12P] here?
Its protein stability index is 2.74.

With FMPAMQFSIPPKRYDAEVVAIAQK [W12K] as the variant, how does the protein stability index read?
The protein stability index was 2.17.

For FMPAMQFSIPPARYDAEVVAIAQK [W12A], which protein stability index is on record?
Its protein stability index is 2.31.

For FMPAMQFSIPPHRYDAEVVAIAQK [W12H], which protein stability index is on record?
Its protein stability index is 2.53.

For FMPAMQFSIPPLRYDAEVVAIAQK [W12L], which protein stability index is on record?
The protein stability index was 2.23.

With FMPAMQFSIPPFRYDAEVVAIAQK [W12F] as the variant, how does the protein stability index read?
The protein stability index was 2.26.

With FMPAMQFSIPPIRYDAEVVAIAQK [W12I] as the variant, how does the protein stability index read?
The protein stability index was 2.18.

For FMPAMQFSIPPYRYDAEVVAIAQK [W12Y], which protein stability index is on record?
The protein stability index was 1.99.

With FMPAMQFSIPPQRYDAEVVAIAQK [W12Q] as the variant, how does the protein stability index read?
The protein stability index was 2.3.

For FMPAMQFSIPPSRYDAEVVAIAQK [W12S], which protein stability index is on record?
The protein stability index was 2.48.

Which protein stability index does the source give for FMPAMQFSIPPCRYDAEVVAIAQK [W12C] here?
Its protein stability index is 1.73.

With FMPAMQFSIPPDRYDAEVVAIAQK [W12D] as the variant, how does the protein stability index read?
Its protein stability index is 2.55.

With FMPAMQFSIPPTRYDAEVVAIAQK [W12T] as the variant, how does the protein stability index read?
The protein stability index was 2.44.

With FMPAMQFSIPPERYDAEVVAIAQK [W12E] as the variant, how does the protein stability index read?
Its protein stability index is 2.08.

With FMPAMQFSIPPNRYDAEVVAIAQK [W12N] as the variant, how does the protein stability index read?
Its protein stability index is 2.49.

Which protein stability index does the source give for FMPAMQFSIPPMRYDAEVVAIAQK [W12M] here?
The protein stability index was 2.7.

With FMPAMQFSIPPWRYYAEVVAIAQK [D15Y] as the variant, how does the protein stability index read?
Its protein stability index is 3.05.

Which protein stability index does the source give for FMPAMQFSIPPWRYWAEVVAIAQK [D15W] here?
The protein stability index was 1.19.

With FMPAMQFSIPPWRYSAEVVAIAQK [D15S] as the variant, how does the protein stability index read?
Its protein stability index is 1.24.

For FMPAMQFSIPPWRYKAEVVAIAQK [D15K], which protein stability index is on record?
The protein stability index was 1.25.

With FMPAMQFSIPPWRYRAEVVAIAQK [D15R] as the variant, how does the protein stability index read?
Its protein stability index is 1.95.

For FMPAMQFSIPPWRYNAEVVAIAQK [D15N], which protein stability index is on record?
Its protein stability index is 3.08.

With FMPAMQFSIPPWRYQAEVVAIAQK [D15Q] as the variant, how does the protein stability index read?
Its protein stability index is 1.94.

Which protein stability index does the source give for FMPAMQFSIPPWRYGAEVVAIAQK [D15G] here?
Its protein stability index is 1.75.

For FMPAMQFSIPPWRYPAEVVAIAQK [D15P], which protein stability index is on record?
The protein stability index was 1.17.

Which protein stability index does the source give for FMPAMQFSIPPWRYLAEVVAIAQK [D15L] here?
The protein stability index was 1.5.

For FMPAMQFSIPPWRYTAEVVAIAQK [D15T], which protein stability index is on record?
Its protein stability index is 2.69.

With FMPAMQFSIPPWRYMAEVVAIAQK [D15M] as the variant, how does the protein stability index read?
Its protein stability index is 2.56.

For FMPAMQFSIPPWRYEAEVVAIAQK [D15E], which protein stability index is on record?
Its protein stability index is 2.5.

With FMPAMQFSIPFWRYDAEVVAIAQK [P11F] as the variant, how does the protein stability index read?
Its protein stability index is 2.17.

For FMPAMQFSIPDWRYDAEVVAIAQK [P11D], which protein stability index is on record?
The protein stability index was 2.37.

Which protein stability index does the source give for FMPAMQFSIPHWRYDAEVVAIAQK [P11H] here?
Its protein stability index is 3.1.

For FMPAMQFSIPEWRYDAEVVAIAQK [P11E], which protein stability index is on record?
Its protein stability index is 1.64.

With FMPAMQFSIPNWRYDAEVVAIAQK [P11N] as the variant, how does the protein stability index read?
The protein stability index was 2.11.

Which protein stability index does the source give for FMPAMQFSIPSWRYDAEVVAIAQK [P11S] here?
The protein stability index was 2.03.

For FMPAMQFSIPLWRYDAEVVAIAQK [P11L], which protein stability index is on record?
Its protein stability index is 2.24.

With FMPAMQFSIPCWRYDAEVVAIAQK [P11C] as the variant, how does the protein stability index read?
Its protein stability index is 1.79.

With FMPAMQFSIPTWRYDAEVVAIAQK [P11T] as the variant, how does the protein stability index read?
The protein stability index was 1.69.

With FMPAMQFSIPYWRYDAEVVAIAQK [P11Y] as the variant, how does the protein stability index read?
The protein stability index was 2.28.

Which protein stability index does the source give for FMPAMQFSIPKWRYDAEVVAIAQK [P11K] here?
The protein stability index was 1.65.

Which protein stability index does the source give for FMPAMQFSIPGWRYDAEVVAIAQK [P11G] here?
Its protein stability index is 1.48.

Which protein stability index does the source give for FMPAMQFSIPQWRYDAEVVAIAQK [P11Q] here?
The protein stability index was 1.78.

Which protein stability index does the source give for FMPAMQFSIPRWRYDAEVVAIAQK [P11R] here?
Its protein stability index is 1.48.

With FMPAMQFSIPIWRYDAEVVAIAQK [P11I] as the variant, how does the protein stability index read?
Its protein stability index is 1.59.

For FMPAMQFSIPVWRYDAEVVAIAQK [P11V], which protein stability index is on record?
The protein stability index was 1.01.

For FMPAMQFSIPPWRMDAEVVAIAQK [Y14M], which protein stability index is on record?
The protein stability index was 2.25.

Which protein stability index does the source give for FMPAMQFSIPPWRDDAEVVAIAQK [Y14D] here?
Its protein stability index is 2.2.

Which protein stability index does the source give for FMPAMQFSIPPWRHDAEVVAIAQK [Y14H] here?
The protein stability index was 2.52.

With FMPAMQFSIPPWRCDAEVVAIAQK [Y14C] as the variant, how does the protein stability index read?
The protein stability index was 1.67.

For FMPAMQFSIPPWRFDAEVVAIAQK [Y14F], which protein stability index is on record?
Its protein stability index is 1.63.

For FMPAMQFSIPPWRQDAEVVAIAQK [Y14Q], which protein stability index is on record?
The protein stability index was 2.57.

With FMPAMQFSIPPWRNDAEVVAIAQK [Y14N] as the variant, how does the protein stability index read?
Its protein stability index is 2.37.

With FMPAMQFSIPPWRLDAEVVAIAQK [Y14L] as the variant, how does the protein stability index read?
The protein stability index was 1.59.

For FMPAMQFSIPPWRGDAEVVAIAQK [Y14G], which protein stability index is on record?
Its protein stability index is 1.93.

Which protein stability index does the source give for FMPAMQFSIPPWRPDAEVVAIAQK [Y14P] here?
Its protein stability index is 1.79.

With FMPAMQFSIPPWRSDAEVVAIAQK [Y14S] as the variant, how does the protein stability index read?
Its protein stability index is 2.13.

Which protein stability index does the source give for FMPAMQFSIPPWRIDAEVVAIAQK [Y14I] here?
Its protein stability index is 1.05.

For FMPAMQFSIPPWRKDAEVVAIAQK [Y14K], which protein stability index is on record?
Its protein stability index is 2.08.

Which protein stability index does the source give for FMPAMQFSIPPWRTDAEVVAIAQK [Y14T] here?
Its protein stability index is 2.82.

For FMPAMQFSIPPWRADAEVVAIAQK [Y14A], which protein stability index is on record?
The protein stability index was 2.2.

Which protein stability index does the source give for FMPAMQFSIPPWRYDWEVVAIAQK [A16W] here?
The protein stability index was 1.66.

With FMPAMQFSIPPWRYDMEVVAIAQK [A16M] as the variant, how does the protein stability index read?
The protein stability index was 1.53.

For FMPAMQFSIPPWRYDTEVVAIAQK [A16T], which protein stability index is on record?
Its protein stability index is 3.04.

With FMPAMQFSIPPWRYDKEVVAIAQK [A16K] as the variant, how does the protein stability index read?
The protein stability index was 1.59.

With FMPAMQFSIPPWRYDQEVVAIAQK [A16Q] as the variant, how does the protein stability index read?
Its protein stability index is 1.62.

Which protein stability index does the source give for FMPAMQFSIPPWRYDYEVVAIAQK [A16Y] here?
Its protein stability index is 2.19.

With FMPAMQFSIPPWRYDEEVVAIAQK [A16E] as the variant, how does the protein stability index read?
The protein stability index was 1.97.

Which protein stability index does the source give for FMPAMQFSIPPWRYDFEVVAIAQK [A16F] here?
The protein stability index was 2.28.

With FMPAMQFSIPPWRYDHEVVAIAQK [A16H] as the variant, how does the protein stability index read?
The protein stability index was 1.63.

Which protein stability index does the source give for FMPAMQFSIPPWRYDGEVVAIAQK [A16G] here?
Its protein stability index is 1.2.

With FMPAMQFSIPPWRYDDEVVAIAQK [A16D] as the variant, how does the protein stability index read?
The protein stability index was 2.25.

With FMPAMQFSIPPWRYDSEVVAIAQK [A16S] as the variant, how does the protein stability index read?
Its protein stability index is 1.72.

With FMPAMQFSIPPWRYDNEVVAIAQK [A16N] as the variant, how does the protein stability index read?
Its protein stability index is 2.02.

For FMPAMQFSIPPWRYDVEVVAIAQK [A16V], which protein stability index is on record?
Its protein stability index is 2.52.

For FMPAMQFSIPPWRYDPEVVAIAQK [A16P], which protein stability index is on record?
The protein stability index was 2.08.

With FMPAMQFSIPPWRYDIEVVAIAQK [A16I] as the variant, how does the protein stability index read?
Its protein stability index is 3.3.

With FMPAMQFSIPPWRYDREVVAIAQK [A16R] as the variant, how does the protein stability index read?
Its protein stability index is 2.65.

With FMPAMQFSIPPWYYDAEVVAIAQK [R13Y] as the variant, how does the protein stability index read?
The protein stability index was 1.69.

With FMPAMQFSIPPWAYDAEVVAIAQK [R13A] as the variant, how does the protein stability index read?
The protein stability index was 2.04.

Which protein stability index does the source give for FMPAMQFSIPPWTYDAEVVAIAQK [R13T] here?
Its protein stability index is 2.02.

For FMPAMQFSIPPWKYDAEVVAIAQK [R13K], which protein stability index is on record?
Its protein stability index is 2.21.

For FMPAMQFSIPPWIYDAEVVAIAQK [R13I], which protein stability index is on record?
Its protein stability index is 1.81.

For FMPAMQFSIPPWWYDAEVVAIAQK [R13W], which protein stability index is on record?
Its protein stability index is 1.58.

For FMPAMQFSIPPWSYDAEVVAIAQK [R13S], which protein stability index is on record?
Its protein stability index is 1.63.

Which protein stability index does the source give for FMPAMQFSIPPWNYDAEVVAIAQK [R13N] here?
Its protein stability index is 2.51.

For FMPAMQFSIPPWVYDAEVVAIAQK [R13V], which protein stability index is on record?
The protein stability index was 1.16.

With FMPAMQFSIPPWDYDAEVVAIAQK [R13D] as the variant, how does the protein stability index read?
The protein stability index was 2.67.

Which protein stability index does the source give for FMPAMQFSIPPWEYDAEVVAIAQK [R13E] here?
The protein stability index was 2.48.

With FMPAMQFSIPPWFYDAEVVAIAQK [R13F] as the variant, how does the protein stability index read?
Its protein stability index is 1.1.

With FMPAMQFSIPPWPYDAEVVAIAQK [R13P] as the variant, how does the protein stability index read?
Its protein stability index is 2.17.

Which protein stability index does the source give for FMPAMQFSIPPWQYDAEVVAIAQK [R13Q] here?
Its protein stability index is 2.53.

Which protein stability index does the source give for FMPAMQFSIPPWGYDAEVVAIAQK [R13G] here?
The protein stability index was 1.53.

From the supplement of paper PMC10567573
